Columns and labels:
HeLa Kyoto [1] = experiment: solubility in G1/S (NP-40 vs SDS abundance) (log2 ratio); higher = more soluble; conditions: cell cycle stage: G1/S
HeLa Kyoto [2] = experiment: melting temperature (median over replicates), in situ; higher = more thermally stable
HeLa Kyoto [3] = experiment: solubility change mitosis vs G1/S (difference of NP-40 vs SDS log2 ratios) (log2 ratio difference); higher = more soluble in mitosis
HeLa Kyoto [4] = experiment: thermal stability score vs G1/S (z-score of summed log2 fold changes over temperatures); higher = more thermally stable than in G1/S
[5] = cell cycle stage: early G1 (4.5 h after nocodazole release)
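Wherever melting temperature (median over replicates), in situ is given: HeLa Kyoto cells synchronized by double thymidine or nocodazole block, proteins quantified by TMT10plex mass spectrometry, three independent biological replicates.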
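Wherever solubility change mitosis vs G1/S (difference of NP-40 vs SDS log2 ratios) is given: synchronized HeLa Kyoto cells (double thymidine block for G1/S, nocodazole release for mitosis), protein amounts in NP-40 versus SDS lysates quantified by mass spectrometry, three biological replicates.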
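Wherever solubility in G1/S (NP-40 vs SDS abundance) is given: HeLa Kyoto cells arrested at G1/S by double thymidine block, proteins quantified by TMT10plex mass spectrometry in mild NP-40 versus SDS extracts, three biological replicates.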
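Wherever thermal stability score vs G1/S (z-score of summed log2 fold changes over temperatures) is given: synchronized HeLa Kyoto cells, proteins quantified by TMT10plex mass spectrometry, three biological replicates, mitosis taken 0.5 h after nocodazole release, G1/S directly after double thymidine block.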

Chain of NUDC (chain, as listed by the source): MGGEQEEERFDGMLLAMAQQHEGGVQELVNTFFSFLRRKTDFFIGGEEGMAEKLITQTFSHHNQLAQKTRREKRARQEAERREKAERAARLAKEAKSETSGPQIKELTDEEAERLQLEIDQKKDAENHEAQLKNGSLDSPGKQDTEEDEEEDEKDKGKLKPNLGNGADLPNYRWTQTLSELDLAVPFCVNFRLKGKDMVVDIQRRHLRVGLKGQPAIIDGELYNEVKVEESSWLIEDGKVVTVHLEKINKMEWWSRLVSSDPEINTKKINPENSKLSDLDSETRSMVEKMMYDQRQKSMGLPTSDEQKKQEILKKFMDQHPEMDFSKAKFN
Chain of TANC2 (chain, as listed by the source): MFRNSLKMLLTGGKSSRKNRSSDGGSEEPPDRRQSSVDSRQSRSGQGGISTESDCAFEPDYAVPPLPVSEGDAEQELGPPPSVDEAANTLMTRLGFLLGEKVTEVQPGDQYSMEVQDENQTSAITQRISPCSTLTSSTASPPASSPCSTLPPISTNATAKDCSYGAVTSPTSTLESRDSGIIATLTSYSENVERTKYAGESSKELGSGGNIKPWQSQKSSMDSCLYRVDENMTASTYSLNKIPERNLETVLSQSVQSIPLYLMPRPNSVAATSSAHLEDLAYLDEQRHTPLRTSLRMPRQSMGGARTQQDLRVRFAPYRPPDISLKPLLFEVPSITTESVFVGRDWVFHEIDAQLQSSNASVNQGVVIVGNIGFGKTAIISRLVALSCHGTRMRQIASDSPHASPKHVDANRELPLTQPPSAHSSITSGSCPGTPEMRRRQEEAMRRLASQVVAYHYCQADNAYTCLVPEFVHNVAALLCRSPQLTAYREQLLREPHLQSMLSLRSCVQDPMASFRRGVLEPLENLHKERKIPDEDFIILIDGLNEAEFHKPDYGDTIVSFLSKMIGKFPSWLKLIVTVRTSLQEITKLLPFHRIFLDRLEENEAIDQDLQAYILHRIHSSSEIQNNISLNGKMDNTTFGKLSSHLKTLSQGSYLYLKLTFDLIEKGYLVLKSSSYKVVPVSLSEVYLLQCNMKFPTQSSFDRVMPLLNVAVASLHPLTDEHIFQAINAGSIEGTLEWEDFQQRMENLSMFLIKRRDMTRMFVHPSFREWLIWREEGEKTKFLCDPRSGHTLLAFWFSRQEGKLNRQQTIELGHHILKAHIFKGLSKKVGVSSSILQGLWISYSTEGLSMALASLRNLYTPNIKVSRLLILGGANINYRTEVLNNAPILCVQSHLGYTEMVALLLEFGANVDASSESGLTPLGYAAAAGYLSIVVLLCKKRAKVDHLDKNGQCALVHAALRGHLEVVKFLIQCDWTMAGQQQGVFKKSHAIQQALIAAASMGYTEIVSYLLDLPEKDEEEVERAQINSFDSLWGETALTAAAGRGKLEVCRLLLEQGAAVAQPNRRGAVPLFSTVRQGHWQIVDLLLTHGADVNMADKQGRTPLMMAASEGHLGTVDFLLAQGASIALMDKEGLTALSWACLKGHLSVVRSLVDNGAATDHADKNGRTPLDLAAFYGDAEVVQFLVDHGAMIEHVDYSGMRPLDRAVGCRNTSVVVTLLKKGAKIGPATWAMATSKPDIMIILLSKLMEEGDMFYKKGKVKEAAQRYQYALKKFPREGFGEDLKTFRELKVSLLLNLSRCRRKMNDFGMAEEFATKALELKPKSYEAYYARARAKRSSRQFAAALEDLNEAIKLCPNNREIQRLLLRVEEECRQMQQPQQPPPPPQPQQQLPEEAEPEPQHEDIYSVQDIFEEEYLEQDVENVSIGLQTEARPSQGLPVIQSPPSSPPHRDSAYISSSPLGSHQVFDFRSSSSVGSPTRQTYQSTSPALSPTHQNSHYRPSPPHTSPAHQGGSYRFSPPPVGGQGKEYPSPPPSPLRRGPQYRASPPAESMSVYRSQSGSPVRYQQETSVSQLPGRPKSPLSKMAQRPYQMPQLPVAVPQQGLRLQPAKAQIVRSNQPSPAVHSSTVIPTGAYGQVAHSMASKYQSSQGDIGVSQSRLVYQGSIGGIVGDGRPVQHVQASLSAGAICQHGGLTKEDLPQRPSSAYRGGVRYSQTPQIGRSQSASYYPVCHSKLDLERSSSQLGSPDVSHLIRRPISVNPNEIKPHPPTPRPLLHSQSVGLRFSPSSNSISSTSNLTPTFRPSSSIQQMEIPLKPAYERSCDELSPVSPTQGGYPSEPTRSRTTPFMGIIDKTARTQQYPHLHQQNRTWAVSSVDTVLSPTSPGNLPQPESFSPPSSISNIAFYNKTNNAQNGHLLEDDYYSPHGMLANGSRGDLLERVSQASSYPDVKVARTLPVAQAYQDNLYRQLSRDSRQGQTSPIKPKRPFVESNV
Chain of TIMM17B (chain, as listed by the source): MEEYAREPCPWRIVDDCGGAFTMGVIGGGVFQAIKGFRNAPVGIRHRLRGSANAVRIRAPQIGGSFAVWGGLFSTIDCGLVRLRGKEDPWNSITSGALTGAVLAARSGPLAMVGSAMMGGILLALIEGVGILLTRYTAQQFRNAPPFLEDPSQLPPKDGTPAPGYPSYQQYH

Substance	solubility in G1/S (log2) (HeLa Kyoto [1])	melting temperature (HeLa Kyoto [2]; cell cycle stage: G1/S)	melting temperature (HeLa Kyoto [2]; cell cycle stage: mitosis)	solubility change mitosis (log2) (HeLa Kyoto [3])	thermal stability score (HeLa Kyoto [4]; [5])	thermal stability score (HeLa Kyoto [4]; cell cycle stage: mitosis)
MASASTSKYNSHSLENESIKRTSRDGVNRDLTEAVPRLPGETLITDKEVIYICPFNGPIKGRVYITNYRLYLRSLETDSSLILDVPLGVISRIEKMGGATSRGENSYGLDITCKDMRNLRFALKQEGHSRRDMFEILTRYAFPLAHSLPLFAFLNEEKFNVDGWTVYNPVEEYRRQGLPNHHWRITFINKCYELCDTYPALLVVPYRASDDDLRRVATFRSRNRIPVLSWIHPENKTVIVRCSQPLVGMSGKRNKDDEKYLDVIRETNKQISKLTIYDARPSVNAVANKATGGGYESDDAYHNAELFFLDIHNIHVMRESLKKVKDIVYPNVEESHWLSSLESTHWLEHIKLVLTGAIQVADKVSSGKSSVLVHCSDGWDRTAQLTSLAMLMLDSFYRSIEGFEILVQKEWISFGHKFASRIGHGDKNHTDADRSPIFLQFIDCVWQMSKQFPTAFEFNEQFLIIILDHLYSCRFGTFLFNCESARERQKVTERTVSLWSLINSNKEKFKNPFYTKEINRVLYPVASMRHLELWVNYYIRWNPRIKQQQPNPVEQRYMELLALRDEYIKRLEELQLANSAKLSDPPTSPSSPSQMMPHVQTHF [MTM1]	-0.0766	55.2 °C	54 °C	0.0496	-1.72	-2.37
RHOG	0.562	55.9 °C	55.2 °C	-0.00567	-1.81	-2.65
MSPRRTLPRPLSLCLSLCLCLCLAAALGSAQSGSCRDKKNCKVVFSQQELRKRLTPLQYHVTQEKGTESAFEGEYTHHKDPGIYKCVVCGTPLFKSETKFDSGSGWPSFHDVINSEAITFTDDFSYGMHRVETSCSQCGAHLGHIFDDGPRPTGKRYCINSAALSFTPADSSGTAEGGSGVASPAQADKAEL [MSRB3]	0.116	55 °C	53.6 °C	0.0421	-0.168	-0.886
MTSPAAAQSREIDCLSPEAQKLAEARLAAKRAARAEAREIRMKELERQQKEEDSERYSRRSRRNTSASDEDERMSVGSRGSLRVEERPEKDFTEKGSRNMPGLSAATLASLGGTSSRRGSGDTSISIDTEASIREIKELNELKDQIQDVEGKYMQGLKEMKDSLAEVEEKYKKAMVSNAQLDNEKTNFMYQVDTLKDMLLELEEQLAESRRQYEEKNKEFEREKHAHSILQFQFAEVKEALKQREEMLEKHGIILNSEIATNGETSDTLNNVGYQGPTKMTKEELNALKSTGDGTLGRASEVEVKNEIVANVGKREILHNTEKEQHTEDTVKDCVDIEVFPAGENTEDQKSSEDTAPFLGTLAGATYEEQVQSQILESSSLPENTVQVESNEVMGAPDDRTRTPLEPSNCWSDLDGGNHTENVGEAAVTQVEEQAGTVASCPLGHSDDTVYHDDKCMVEVPQELETSTGHSLEKEFTNQEAAEPKEVPAHSTEVGRDHNEEEGEETGLRDEKPIKTEVPGSPAGTEGNCQEATGPSTVDTQNEPLDMKEPDEEKSDQQGEALDSSQKKTKNKKKKNKKKKSPVPVETLKDVKKELTYQNTDLSEIKEEEQVKSTDRKSAVEAQNEVTENPKQKIAAESSENVDCPENPKIKLDGKLDQEGDDVQTAAEEVLADGDTLDFEDDTVQSSGPRAGGEELDEGVAKDNAKIDGATQSSPAEPKSEDADRCTLPEHESPSQDISDACEAESTERCEMSEHPSQTVRKALDSNSLENDDLSAPGREPGHFNPESREDTRGGNEKGKSKEDCTMS [LRRFIP1]	0.265	58.7 °C	–	0.0557	-2.05	-2.56
TANC2	0.222	–	50.3 °C	-0.0218	0.0704	0.122
MSMLKPSGLKAPTKILKPGSTALKTPTAVVAPVEKTISSEKASSTPSSETQEEFVDDFRVGERVWVNGNKPGFIQFLGETQFAPGQWAGIVLDEPIGKNDGSVAGVRYFQCEPLKGIFTRPSKLTRKVQAEDEANGLQTTPASRATSPLCTSTASMVSSSPSTPSNIPQKPSQPAAKEPSATPPISNLTKTASESISNLSEAGSIKKGERELKIGDRVLVGGTKAGVVRFLGETDFAKGEWCGVELDEPLGKNDGAVAGTRYFQCQPKYGLFAPVHKVTKIGFPSTTPAKAKANAVRRVMATTSASLKRSPSASSLSSMSSVASSVSSRPSRTGLLTETSSRYARKISGTTALQEALKEKQQHIEQLLAERDLERAEVAKATSHVGEIEQELALARDGHDQHVLELEAKMDQLRTMVEAADREKVELLNQLEEEKRKVEDLQFRVEEESITKGDLEQKSQISEDPENTQTKLEHARIKELEQSLLFEKTKADKLQRELEDTRVATVSEKSRIMELEKDLALRVQEVAELRRRLESNKPAGDVDMSLSLLQEISSLQEKLEVTRTDHQREITSLKEHFGAREETHQKEIKALYTATEKLSKENESLKSKLEHANKENSDVIALWKSKLETAIASHQQAMEELKVSFSKGLGTETAEFAELKTQIEKMRLDYQHEIENLQNQQDSERAAHAKEMEALRAKLMKVIKEKENSLEAIRSKLDKAEDQHLVEMEDTLNKLQEAEIKVKELEVLQAKCNEQTKVIDNFTSQLKATEEKLLDLDALRKASSEGKSEMKKLRQQLEAAEKQIKHLEIEKNAESSKASSITRELQGRELKLTNLQENLSEVSQVKETLEKELQILKEKFAEASEEAVSVQRSMQETVNKLHQKEEQFNMLSSDLEKLRENLADMEAKFREKDEREEQLIKAKEKLENDIAEIMKMSGDNSSQLTKMNDELRLKERDVEELQLKLTKANENASFLQKSIEDMTVKAEQSQQEAAKKHEEEKKELERKLSDLEKKMETSHNQCQELKARYERATSETKTKHEEILQNLQKTLLDTEDKLKGAREENSGLLQELEELRKQADKAKAAQTAEDAMQIMEQMTKEKTETLASLEDTKQTNAKLQNELDTLKENNLKNVEELNKSKELLTVENQKMEEFRKEIETLKQAAAQKSQQLSALQEENVKLAEELGRSRDEVTSHQKLEEERSVLNNQLLEMKKRESKFIKDADEEKASLQKSISITSALLTEKDAELEKLRNEVTVLRGENASAKSLHSVVQTLESDKVKLELKVKNLELQLKENKRQLSSSSGNTDTQADEDERAQESQIDFLNSVIVDLQRKNQDLKMKVEMMSEAALNGNGDDLNNYDSDDQEKQSKKKPRLFCDICDCFDLHDTEDCPTQAQMSEDPPHSTHHGSRGEERPYCEICEMFGHWATNCNDDETF [CLIP1]	0.37	54.7 °C	54.2 °C	-0.0152	-1.53	-1.75
TIMM17B	0.308	54.9 °C	57.2 °C	0.0028	-0.611	-0.727
MEKSNETNGYLDSAQAGPAAGPGAPGTAAGRARRCAGFLRRQALVLLTVSGVLAGAGLGAALRGLSLSRTQVTYLAFPGEMLLRMLRMIILPLVVCSLVSGAASLDASCLGRLGGIAVAYFGLTTLSASALAVALAFIIKPGSGAQTLQSSDLGLEDSGPPPVPKETVDSFLDLARNLFPSNLVVAAFRTYATDYKVVTQNSSSGNVTHEKIPIGTEIEGMNILGLVLFALVLGVALKKLGSEGEDLIRFFNSLNEATMVLVSWIMWYVPVGIMFLVGSKIVEMKDIIVLVTSLGKYIFASILGHVIHGGIVLPLIYFVFTRKNPFRFLLGLLAPFATAFATCSSSATLPSMMKCIEENNGVDKRISRFILPIGATVNMDGAAIFQCVAAVFIAQLNNVELNAGQIFTILVTATASSVGAAGVPAGGVLTIAIILEAIGLPTHDLPLILAVDWIVDRTTTVVNVEGDALGAGILHHLNQKATKKGEQELAEVKVEAIPNCKSEEETSPLVTHQNPAGPVASAPELESKESVL [SLC1A4]	-0.527	58.9 °C	62.8 °C	0.0714	-1.93	-4.67
MADISLDELIRKRGAAAKGRLNARPGVGGVRSRVGIQQGLLSQSTRTATFQQRFDARQKIGLSDARLKLGVKDAREKLLQKDARFRIKGKVQDAREMLNSRKQQTTVPQKPRQVADAREKISLKRSSPAAFINPPIGTVTPALKLTKTIQVPQQKAMAPLHPHPAGMRINVVNNHQAKQNLYDLDEDDDGIASVPTKQMKFAASGGFLHHMAGLSSSKLSMSKALPLTKVVQNDAYTAPALPSSIRTKALTNMSRTLVNKEEPPKELPAAEPVLSPLEGTKMTVNNLHPRVTEEDIVELFCVCGALKRARLVHPGVAEVVFVKKDDAITAYKKYNNRCLDGQPMKCNLHMNGNVITSDQPILLRLSDSPSMKKESELPRRVNSASSSNPPAEVDPDTILKALFKSSGASVTTQPTEFKIKL [POLDIP3]	-0.386	49.3 °C	49.9 °C	0.732	-0.794	-0.0102
MVGQMYCYPGSHLARALTRALALALVLALLVGPFLSGLAGAIPAPGGRWARDGQVPPASRSRSVLLDVSAGQLLMVDGRHPDAVAWANLTNAIRETGWAFLELGTSGQYNDSLQAYAAGVVEAAVSEELIYMHWMNTVVNYCGPFEYEVGYCERLKSFLEANLEWMQEEMESNPDSPYWHQVRLTLLQLKGLEDSYEGRVSFPAGKFTIKPLGFLLLQLSGDLEDLELALNKTKIKPSLGSGSCSALIKLLPGQSDLLVAHNTWNNYQHMLRVIKKYWLQFREGPWGDYPLVPGNKLVFSSYPGTIFSCDDFYILGSGLVTLETTIGNKNPALWKYVRPRGCVLEWVRNIVANRLASDGATWADIFKRFNSGTYNNQWMIVDYKAFIPGGPSPGSRVLTILEQIPGMVVVADKTSELYQKTYWASYNIPSFETVFNASGLQALVAQYGDWFSYDGSPRAQIFRRNQSLVQDMDSMVRLMRYNDFLHDPLSLCKACNPQPNGENAISARSDLNPANGSYPFQALRQRSHGGIDVKVTSMSLARILSLLAASGPTWDQVPPFQWSTSPFSGLLHMGQPDLWKFAPVKVSWD [PLBD2]	0.298	56.6 °C	55.9 °C	-0.0289	-1.75	-1.5
MEVPAAGRVPAEGAPTAAVAEVRCPGPAPLRLLEWRVAAGAAVRIGSVLAVFEAAASAQSSGASQSRVASGGCVRPARPERRLRSERAGVVRELCAQPGQVVAPGAVLVRLEGCSHPVVMKGLCAECGQDLTQLQSKNGKQQVPLSTATVSMVHSVPELMVSSEQAEQLGREDQQRLHRNRKLVLMVDLDQTLIHTTEQHCQQMSNKGIFHFQLGRGEPMLHTRLRPHCKDFLEKIAKLYELHVFTFGSRLYAHTIAGFLDPEKKLFSHRILSRDECIDPFSKTGNLRNLFPCGDSMVCIIDDREDVWKFAPNLITVKKYVYFQGTGDMNAPPGSRESQTRKKVNHSRGTEVSEPSPPVRDPEGVTQAPGVEPSNGLEKPARELNGSEAATPRDSPRPGKPDERDIWPPAQAPTSSQELAGAPEPQGSCAQGGRVAPGQRPAQGATGTDLDFDLSSDSESSSESEGTKSSSSASDGESEGKRGRQKPKAAPEGAGALAQGSSLEPGRPAAPSLPGEAEPGAHAPDKEPELGGQEEGERDGLCGLGNGCADRKEAETESQNSELSGVTAGESLDQSMEEEEEEDTDEDDHLIYLEEILVRVHTDYYAKYDRYLNKEIEEAPDIRKIVPELKSKVLADVAIIFSGLHPTNFPIEKTREHYHATALGAKILTRLVLSPDAPDRATHLIAARAGTEKVLQAQECGHLHVVNPDWLWSCLERWDKVEEQLFPLRDDHTKAQRENSPAAFPDREGVPPTALFHPMPVLPKAQPGPEVRIYDSNTGKLIRTGARGPPAPSSSLPIRQEPSSFRAVPPPQPQMFGEELPDAQDGEQPGPSRRKRQPSMSETMPLYTLCKEDLESMDKEVDDILGEGSDDSDSEKRRPEEQEEEPQPRKPGTRRERTLGAPASSERSAAGGRGPRGHKRKLNEEDAASESSRESSNEDEGSSSEADEMAKALEAELNDLM [CTDP1]	0.0911	49.2 °C	50.6 °C	-0.102	1.52	2.78
MAGMVDFQDEEQVKSFLENMEVECNYHCYHEKDPDGCYRLVDYLEGIRKNFDEAAKVLKFNCEENQHSDSCYKLGAYYVTGKGGLTQDLKAAARCFLMACEKPGKKSIAACHNVGLLAHDGQVNEDGQPDLGKARDYYTRACDGGYTSSCFNLSAMFLQGAPGFPKDMDLACKYSMKACDLGHIWACANASRMYKLGDGVDKDEAKAEVLKNRAQQLHKEQQKGVQPLTFG [COA7]	0.586	52.9 °C	52.7 °C	0.0461	-1.59	-1.97
NUDC	0.405	51.9 °C	52.4 °C	-0.106	0.837	-0.681

Reference: the supplement of paper PMC5998384
